One assay has as its target FcgRIIa (human) (UniProt P12318). Kind of assay: flow cytometry (FACSCalibur), K562 cells, pH 7.4, detection reagent alone.
In the next assay the target is FcRn (UniProt P55899). Kind of assay: flow cytometry (FACSCalibur), FcRnGPI-CHO cells, pH 6.4, detection reagent alone. A general note: Flow cytometry measures light scatter and fluorescence of single cells or particles in a stream.
Assay [1] concerns the target FcgRIIb (human) (UniProt P31994). Kind of assay: flow cytometry (FACSCalibur), CHO-FcgRII-b-1 cells, pH 7.4, detection reagent alone.
The target is the same in assay [2]. Kind of assay: flow cytometry (FACSCalibur), CHO-FcgRII-b-1 cells, pH 7.4, 100 ug/ml.
Another assay deals with FcgRI (human) (UniProt P12314). Kind of assay: flow cytometry (FACSCalibur), THP-1 cells, pH 7.4, 100 ug/ml.

Several values for one entry are separate records, joined by “and”; a condition that tells them apart may be missing. Identical values can stand only once.

Chain of FcgRIIa (human) (P12318 34-317): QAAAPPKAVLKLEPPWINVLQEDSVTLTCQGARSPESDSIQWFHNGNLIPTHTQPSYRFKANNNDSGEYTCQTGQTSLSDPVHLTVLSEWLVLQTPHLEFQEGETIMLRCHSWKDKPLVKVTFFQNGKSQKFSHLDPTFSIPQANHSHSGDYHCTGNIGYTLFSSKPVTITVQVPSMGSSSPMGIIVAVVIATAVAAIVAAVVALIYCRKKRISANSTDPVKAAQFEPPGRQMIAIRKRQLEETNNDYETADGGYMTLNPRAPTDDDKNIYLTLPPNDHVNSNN

For “R-PE conjugated anti-human IgG F(Ab')2 (Jackson ImmunoResearch, Cat.#109-116-170)”, the Fc Receptor Binding Geometric Mean in the assay with FcgRIIa (human) was 3; with FcRn, 6 and 5; with FcgRIIb (human) [1], 3.
For the substance EGFR (Erbitux ®, Imclone) (antibody), the Fc Receptor Binding Geometric Mean was 3 with FcgRIIb (human) [2]; 101 and 67 with FcgRI (human).

These data come from patent US20110044980A1.
